Assay results from the supplement of paper PMC9428881.
± gives the standard error.

assay: background-corrected fluorescence of 3'-dye-labeled ssDNA relative to brightest sequence (3'-GCGCG) (fraction); higher = brighter dye fluorescence (less quenching); conditions: dye: Cy5 (3' terminal)
In short: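 Fluorescence values are background-corrected using unlabeled oligos and expressed relative to the brightest sequence. The single-stranded DNA was made on glass slides by light-directed phosphoramidite synthesis, each of 1024 permuted pentamers ending beside a 3' Cy3 or Cy5 dye. Scans at 532 or 635 nm were taken before and after overnight ethylenediamine/ethanol deprotection, and each value averages 10 features per array and at least 3 syntheses.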

First: TTTTTTCATGATCATGATGCTTTTTTTTTTTTTTTGCGCA [ACGCG]
Second: TTTTTTCATGATCATGCGCATTTTTTTTTTTTTTTGCGAT [TAGCG]
The background-corrected fluorescence of the first is higher: 0.657 ± 0.043 for the first, 0.474 ± 0.037 for the second.

First: TTTTTTCATGATCATGCTCATTTTTTTTTTTTTTTGCGAG [GAGCG]
Second: TTTTTTCATGATCATGCTGATTTTTTTTTTTTTTTGCGAC [CAGCG]
The background-corrected fluorescence of the first is higher: 0.51 ± 0.085 for the first, 0.394 ± 0.023 for the second.

Going from “TTTTTTCATGATCATGCTGCTTTTTTTTTTTTTTTGCGAA [AAGCG]” to “TTTTTTCATGATGAGCAGCATTTTTTTTTTTTTTTGCCTT [TTCCG]”, the background-corrected fluorescence falls from 0.525 ± 0.028 to 0.367 ± 0.035.

“TTTTTTCATGATGAGCATCATTTTTTTTTTTTTTTGCCTG [GTCCG]” and “TTTTTTCATGATGAGCATGATTTTTTTTTTTTTTTGCCTC [CTCCG]” are within error of each other in background-corrected fluorescence: 0.35 ± 0.021 for the first, 0.286 ± 0.06 for the second.

Going from “TTTTTTCATGATGAGCATGCTTTTTTTTTTTTTTTGCCTA [ATCCG]” to “TTTTTTCATGATGATCAGCATTTTTTTTTTTTTTTGCCGT”, the background-corrected fluorescence rises from 0.366 ± 0.039 to 0.487 ± 0.022.

Compared with “TTTTTTCATGATGATCATCATTTTTTTTTTTTTTTGCCGG [GGCCG]”, “TTTTTTCATGATGATCATGATTTTTTTTTTTTTTTGCCGC [CGCCG]” is lower in background-corrected fluorescence: 0.564 ± 0.072 for the first, 0.434 ± 0.033 for the second.

First: TTTTTTCATGATGATCATGCTTTTTTTTTTTTTTTGCCGA [AGCCG]
Second: TTTTTTCATGATGATGAGCATTTTTTTTTTTTTTTGCCCT [TCCCG]
The background-corrected fluorescence of the first is higher: 0.547 ± 0.034 for the first, 0.329 ± 0.019 for the second.

First: TTTTTTCATGATGATGATCATTTTTTTTTTTTTTTGCCCG
Second: TTTTTTCATGATGATGATGATTTTTTTTTTTTTTTGCCCC [CCCCG]
The background-corrected fluorescence of the first is higher: 0.394 ± 0.045 for the first, 0.272 ± 0.012 for the second.

“TTTTTTCATGATGATGATGCTTTTTTTTTTTTTTTGCCCA [ACCCG]” and “TTTTTTCATGATGATGCGCATTTTTTTTTTTTTTTGCCAT [TACCG]” are within error of each other in background-corrected fluorescence: 0.389 ± 0.058 for the first, 0.404 ± 0.029 for the second.

Compared with “TTTTTTCATGATGATGCTCATTTTTTTTTTTTTTTGCCAG [GACCG]”, “TTTTTTCATGATGATGCTGATTTTTTTTTTTTTTTGCCAC [CACCG]” is lower in background-corrected fluorescence: 0.384 ± 0.031 for the first, 0.299 ± 0.015 for the second.

“TTTTTTCATGATGATGCTGCTTTTTTTTTTTTTTTGCCAA [AACCG]” and “TTTTTTCATGATGCGCAGCATTTTTTTTTTTTTTTGCATT [TTACG]” are within error of each other in background-corrected fluorescence: 0.427 ± 0.041 for the first, 0.395 ± 0.019 for the second.

Compared with “TTTTTTCATGATGCGCATCATTTTTTTTTTTTTTTGCATG [GTACG]”, “TTTTTTCATGATGCGCATGATTTTTTTTTTTTTTTGCATC [CTACG]” is lower in background-corrected fluorescence: 0.385 ± 0.023 for the first, 0.288 ± 0.026 for the second.

Compared with “TTTTTTCATGATGCGCATGCTTTTTTTTTTTTTTTGCATA [ATACG]”, “TTTTTTCATGATGCTCAGCATTTTTTTTTTTTTTTGCAGT [TGACG]” is higher in background-corrected fluorescence: 0.431 ± 0.024 for the first, 0.51 ± 0.055 for the second.

Compared with “TTTTTTCATGATGCTCATCATTTTTTTTTTTTTTTGCAGG [GGACG]”, “TTTTTTCATGATGCTCATGATTTTTTTTTTTTTTTGCAGC [CGACG]” is lower in background-corrected fluorescence: 0.516 ± 0.039 for the first, 0.402 ± 0.045 for the second.

Compared with “TTTTTTCATGATGCTCATGCTTTTTTTTTTTTTTTGCAGA [AGACG]”, “TTTTTTCATGATGCTGAGCATTTTTTTTTTTTTTTGCACT [TCACG]” is lower in background-corrected fluorescence: 0.552 ± 0.035 for the first, 0.339 ± 0.024 for the second.

Compared with “TTTTTTCATGATGCTGATCATTTTTTTTTTTTTTTGCACG”, “TTTTTTCATGATGCTGATGATTTTTTTTTTTTTTTGCACC [CCACG]” is lower in background-corrected fluorescence: 0.383 ± 0.035 for the first, 0.28 ± 0.022 for the second.

“TTTTTTCATGATGCTGATGCTTTTTTTTTTTTTTTGCACA [ACACG]” and “TTTTTTCATGATGCTGCGCATTTTTTTTTTTTTTTGCAAT [TAACG]” are within error of each other in background-corrected fluorescence: 0.375 ± 0.026 for the first, 0.406 ± 0.027 for the second.

First: TTTTTTCATGATGCTGCTCATTTTTTTTTTTTTTTGCAAG [GAACG]
Second: TTTTTTCATGATGCTGCTGATTTTTTTTTTTTTTTGCAAC [CAACG]
The background-corrected fluorescence of the first is higher: 0.422 ± 0.029 for the first, 0.319 ± 0.017 for the second.

Compared with “TTTTTTCATGATGCTGCTGCTTTTTTTTTTTTTTTGCAAA [AAACG]”, “TTTTTTCATGCGCAGCAGCATTTTTTTTTTTTTTTGATTT [TTTAG]” is lower in background-corrected fluorescence: 0.497 ± 0.03 for the first, 0.383 ± 0.029 for the second.

“TTTTTTCATGCGCAGCATCATTTTTTTTTTTTTTTGATTG [GTTAG]” and “TTTTTTCATGCGCAGCATGATTTTTTTTTTTTTTTGATTC [CTTAG]” are within error of each other in background-corrected fluorescence: 0.355 ± 0.024 for the first, 0.317 ± 0.02 for the second.

“TTTTTTCATGCGCAGCATGCTTTTTTTTTTTTTTTGATTA [ATTAG]” and “TTTTTTCATGCGCATCAGCATTTTTTTTTTTTTTTGATGT [TGTAG]” are within error of each other in background-corrected fluorescence: 0.424 ± 0.034 for the first, 0.478 ± 0.04 for the second.

Compared with “TTTTTTCATGCGCATCATCATTTTTTTTTTTTTTTGATGG [GGTAG]”, “TTTTTTCATGCGCATCATGATTTTTTTTTTTTTTTGATGC [CGTAG]” is lower in background-corrected fluorescence: 0.482 ± 0.024 for the first, 0.425 ± 0.03 for the second.

Going from “TTTTTTCATGCGCATCATGCTTTTTTTTTTTTTTTGATGA [AGTAG]” to “TTTTTTCATGCGCATGAGCATTTTTTTTTTTTTTTGATCT [TCTAG]”, the background-corrected fluorescence falls from 0.518 ± 0.062 to 0.354 ± 0.017.

Going from “TTTTTTCATGCGCATGATCATTTTTTTTTTTTTTTGATCG [GCTAG]” to “TTTTTTCATGCGCATGATGATTTTTTTTTTTTTTTGATCC [CCTAG]”, the background-corrected fluorescence falls from 0.41 ± 0.025 to 0.294 ± 0.027.

First: TTTTTTCATGCGCATGATGCTTTTTTTTTTTTTTTGATCA [ACTAG]
Second: TTTTTTCATGCGCATGCGCATTTTTTTTTTTTTTTGATAT [TATAG]
The background-corrected fluorescence of the first is higher: 0.43 ± 0.022 for the first, 0.382 ± 0.018 for the second.

First: TTTTTTCATGCGCATGCTCATTTTTTTTTTTTTTTGATAG
Second: TTTTTTCATGCGCATGCTGATTTTTTTTTTTTTTTGATAC [CATAG]
The background-corrected fluorescence of the first is higher: 0.425 ± 0.049 for the first, 0.334 ± 0.024 for the second.

“TTTTTTCATGCGCATGCTGCTTTTTTTTTTTTTTTGATAA [AATAG]” and “TTTTTTCATGCTCAGCAGCATTTTTTTTTTTTTTTGAGTT” are within error of each other in background-corrected fluorescence: 0.452 ± 0.031 for the first, 0.422 ± 0.024 for the second.

First: TTTTTTCATGCTCAGCATCATTTTTTTTTTTTTTTGAGTG [GTGAG]
Second: TTTTTTCATGCTCAGCATGATTTTTTTTTTTTTTTGAGTC [CTGAG]
The background-corrected fluorescence of the first is higher: 0.445 ± 0.054 for the first, 0.359 ± 0.017 for the second.

“TTTTTTCATGCTCAGCATGCTTTTTTTTTTTTTTTGAGTA [ATGAG]” and “TTTTTTCATGCTCATCAGCATTTTTTTTTTTTTTTGAGGT [TGGAG]” are within error of each other in background-corrected fluorescence: 0.486 ± 0.035 for the first, 0.56 ± 0.05 for the second.

First: TTTTTTCATGCTCATCATCATTTTTTTTTTTTTTTGAGGG [GGGAG]
Second: TTTTTTCATGCTCATCATGATTTTTTTTTTTTTTTGAGGC [CGGAG]
The background-corrected fluorescence of the first is higher: 0.553 ± 0.041 for the first, 0.465 ± 0.033 for the second.

Compared with “TTTTTTCATGCTCATCATGCTTTTTTTTTTTTTTTGAGGA [AGGAG]”, “TTTTTTCATGCTCATGAGCATTTTTTTTTTTTTTTGAGCT [TCGAG]” is lower in background-corrected fluorescence: 0.669 ± 0.059 for the first, 0.41 ± 0.022 for the second.

Going from “TTTTTTCATGCTCATGATCATTTTTTTTTTTTTTTGAGCG [GCGAG]” to “TTTTTTCATGCTCATGATGATTTTTTTTTTTTTTTGAGCC [CCGAG]”, the background-corrected fluorescence falls from 0.526 ± 0.059 to 0.312 ± 0.029.

“TTTTTTCATGCTCATGATGCTTTTTTTTTTTTTTTGAGCA [ACGAG]” and “TTTTTTCATGCTCATGCGCATTTTTTTTTTTTTTTGAGAT [TAGAG]” are within error of each other in background-corrected fluorescence: 0.43 ± 0.035 for the first, 0.439 ± 0.023 for the second.

First: TTTTTTCATGCTCATGCTCATTTTTTTTTTTTTTTGAGAG
Second: TTTTTTCATGCTCATGCTGATTTTTTTTTTTTTTTGAGAC [CAGAG]
The background-corrected fluorescence of the first is higher: 0.492 ± 0.024 for the first, 0.357 ± 0.018 for the second.
